These results are taken from publication PMC5566378 (2017).

The labels stand for the following.
B1: human IL-17RC extracellular domain (receptor)
chain: LERLVGPQDATHCSPGLSCRLWDSDILCLPGDIVPAPGPVLAPTHLQTELVLRCQKETDCDLCLRVAVHLAVHGHWEEPEDEEKFGGAADSGVEEPRNASLQAQVVLSFQAYPTARCVLLEVQVPAALVQFGQSVGSVVYDCFEAALGSEVRIWSYTQPRYEKELNHTQQLPDCRGLEVWNSIPSCWALPWLNVSADGDNVHLVLNVSEEQHFGLSLYWNQVQGPPKPRWHKNLTGPQIITLNHTDLVPCLCIQVWPLEPDSVRTNICPFREDPRAHQNLWQAARLQLLTLQSWLLDAPCSLPAEAALCWRAPGGDPCQPLVPPLSWENVTVDKVLEFPLLKGHPNLCVQVNSSEKLQLQECLWADSLGPLKDDVLLLETRGPQDNRSLCALEPSGCTSLPSKASTRAARLGEYLLQDLQSGQCLQLWDDDLGALWACPMDKYIHKR
B2: human IL-17F homodimer (ligand)
chain: RKIPKVGHTFFQKPESCPPVPGGSMKLDIGIINENQRVSMSRNIESRSTSPWNYTVTWDPNRYPSEVVQAQCRNLGCINAQGKEDISMNSVPIQQETLVVRRKHQGCSVSFQLEKVLVTVGCTCVTPVIHHVQ

Test [1] concerns the target human IL-17A/F heterodimer, Arg77 to alanine mutant (F-chain) (human, UniProt Q16552 24-155; Q96PD4 31-163, R77A). As to the kind of experiment: SPR. (In general: Surface plasmon resonance follows binding to a sensor surface in real time, without labels.)
The target in test [2] is B1. Briefly: SPR.

One may read the Kd as the constant that tells how readily two partners part at equilibrium. Read a high Kd as a looser complex.

In turn, B1 registered a Kd in test [1] of 5.4 nM.
Regarding B2, the affinity in test [2], expressed as Kd, was 3.5 nM.
